Reference: patent publication US20240301069A1

Tests used:
[1] = target: human PD-L1 full-length protein on CHO-hPD-L1 stable cells (human) (UniProt Q9NZQ7); test: flow cytometry, antibody titration on CHO-hPD-L1 cells, MFI-APC
[2] = target: macaque PD-L1 on CHO-cynoPD-L1 stable cells (macaque); test: flow cytometry, antibody titration on CHO-cynoPD-L1 cells, MFI-APC
[3] = target: human PD-L1 on IFNγ-stimulated A375 cells (human) (UniProt Q9NZQ7); test: flow cytometry, antibody titration on human IFNγ-stimulated A375 cells, MFI-APC
Sequence of human PD-L1 on IFNγ-stimulated A375 cells (human) (Q9NZQ7 19-290): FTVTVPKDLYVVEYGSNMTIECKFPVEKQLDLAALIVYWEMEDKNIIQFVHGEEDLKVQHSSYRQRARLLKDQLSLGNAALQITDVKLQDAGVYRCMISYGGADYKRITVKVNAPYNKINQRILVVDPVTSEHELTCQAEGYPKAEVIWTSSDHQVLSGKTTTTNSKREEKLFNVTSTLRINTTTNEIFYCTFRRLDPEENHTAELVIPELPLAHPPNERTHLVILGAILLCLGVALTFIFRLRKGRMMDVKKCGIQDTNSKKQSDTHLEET

[4] = target: human PD-L1 full-length protein on CHO-hPD-L1 stable cells (human) (UniProt Q9NZQ7); test: flow cytometry blocking assay: antibody titrated on CHO-hPD-L1 cells; blocked ligand recombinant human CD80-hFc
[5] = target: human PD-L1 full-length protein on CHO-hPD-L1 stable cells (human) (UniProt Q9NZQ7); test: flow cytometry blocking assay (method 1): antibody titrated on CHO-hPD-L1 cells; blocked ligand recombinant human PD-1-hFc
[6] = target: recombinant human PD-L1 protein carrying a hFc label (human) (UniProt Q9NZQ7); test: flow cytometry blocking assay (method 2): antibody titrated; binding of recombinant human PD-L1-hFc to PD-1 on CHO-hPD-1 cells is blocked
Sequence of recombinant human PD-L1 protein carrying a hFc label (human) (Q9NZQ7 19-238): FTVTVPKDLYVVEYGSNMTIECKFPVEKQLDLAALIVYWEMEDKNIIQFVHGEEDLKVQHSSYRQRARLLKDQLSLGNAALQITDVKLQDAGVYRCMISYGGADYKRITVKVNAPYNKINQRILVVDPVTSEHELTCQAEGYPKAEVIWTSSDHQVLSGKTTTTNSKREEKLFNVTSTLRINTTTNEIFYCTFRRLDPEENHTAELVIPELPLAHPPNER

Sequence of human PD-L1 full-length protein on CHO-hPD-L1 stable cells (human) (Q9NZQ7 19-290 limits assumed): as the sequence (Q9NZQ7 19-290) above
Sequence of macaque PD-L1 on CHO-cynoPD-L1 stable cells (macaque) (Q9NZQ7 other isoform, or with tags, fused parts or gaps limits assumed): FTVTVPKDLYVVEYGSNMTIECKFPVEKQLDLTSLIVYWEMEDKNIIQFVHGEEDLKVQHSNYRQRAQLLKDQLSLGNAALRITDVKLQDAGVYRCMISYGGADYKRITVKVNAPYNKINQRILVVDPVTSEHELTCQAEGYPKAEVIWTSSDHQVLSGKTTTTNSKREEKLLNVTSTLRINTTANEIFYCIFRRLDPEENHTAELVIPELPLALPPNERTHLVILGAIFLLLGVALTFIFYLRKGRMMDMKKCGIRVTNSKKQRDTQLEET

- EC50 [1]: 0.984 nM
- EC50 [2]: 2.02 nM
- EC50 [3]: 0.121 nM
- IC50 [4]: 4.39 nM
- IC50 [5]: 6.32 nM
- IC50 [6]: 1.61 nM
Substance: atezolizumab-mIgG1 (mIgG1 subtype) (antibody)
